± gives the standard deviation.
Test: collision cross section of modified peptide (TIMS, N2, iRT-aligned); higher = larger / more extended gas-phase ion
Description: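 1/K0 was aligned run-wise to spiked iRT peptides and converted to CCS in N2 (Mason-Schamp). Values are the mean of 1-3 technical replicates for the most abundant feature at each charge state.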

[1] = charge state: 2, modification: Crotonyl
[2] = charge state: 3, modification: Crotonyl
[3] = charge state: 2, modification: Dimethyl (K)
[4] = charge state: 3, modification: Dimethyl (K)
[5] = charge state: 2, modification: Formyl
[6] = charge state: 2, modification: Glutarylation
[7] = charge state: 3, modification: Glutarylation
[8] = charge state: 2, modification: GlyGly (K)
[9] = charge state: 3, modification: GlyGly (K)
[10] = charge state: 2, modification: Malonyl
[11] = charge state: 2, modification: Methyl (K)
[12] = charge state: 3, modification: Methyl (K)
[13] = charge state: 2, modification: Succinyl
[14] = charge state: 3, modification: Succinyl
[15] = charge state: 2, modification: Trimethyl (K)
[16] = charge state: 3, modification: Trimethyl (K)
[17] = charge state: 2, modification: hydroxyisobutyryl
[18] = charge state: 3, modification: hydroxyisobutyryl
[19] = charge state: 3, modification: Citrullination (R)
[20] = charge state: 2, modification: Nitro (Y)
[21] = charge state: 3, modification: Nitro (Y)
[22] = charge state: 2, modification: Phospho (Y)
[23] = charge state: 3, modification: Phospho (Y)
[24] = charge state: 2, modification: Acetyl (K)
[25] = charge state: 3, modification: Acetyl (K)
[26] = charge state: 2, modification: Biotin
[27] = charge state: 3, modification: Biotin
[28] = charge state: 2, modification: Butyryl
[29] = charge state: 3, modification: Butyryl
[30] = charge state: 3, modification: Formyl
[31] = charge state: 3, modification: Malonyl

## ATVASSTQKFQDLGVK [_ATVASSTQK(Crotonyl)FQDLGVK_]
[1]
  collision cross section: 452.45 ± 0.83 Å²
[2]
  collision cross section: 494.25 ± 1.6 Å²

## ATVASSTQKFQDLGVK [_ATVASSTQK(Dimethyl (K))FQDLGVK_]
[3]
  collision cross section: 461.58 ± 1.2 Å²
[4]
  collision cross section: 471.81 ± 2.1 Å²

## ATVASSTQKFQDLGVK [_ATVASSTQK(Formyl)FQDLGVK_]
[5]
  collision cross section: 442.05 ± 0.78 Å²

## ATVASSTQKFQDLGVK [_ATVASSTQK(Gluratylation)FQDLGVK_]
[6]
  collision cross section: 449.16 ± 1.1 Å²
[7]
  collision cross section: 497.84 ± 1.7 Å²

## ATVASSTQKFQDLGVK [_ATVASSTQK(GlyGly (K))FQDLGVK_]
[8]
  collision cross section: 480.31 ± 1.5 Å²
[9]
  collision cross section: 500.25 ± 0.34 Å²

## ATVASSTQKFQDLGVK [_ATVASSTQK(Malonyl)FQDLGVK_]
[10]
  collision cross section: 440.93 ± 1 Å²

## ATVASSTQKFQDLGVK [_ATVASSTQK(Methyl (K))FQDLGVK_]
[11]
  collision cross section: 464.26 ± 2.2 Å²
[12]
  collision cross section: 478.87 ± 3.4 Å²

## ATVASSTQKFQDLGVK [_ATVASSTQK(Succinyl)FQDLGVK_]
[13]
  collision cross section: 444.76 ± 1.1 Å²
[14]
  collision cross section: 493.48 ± 0.68 Å²

## ATVASSTQKFQDLGVK [_ATVASSTQK(Trimethyl (K))FQDLGVK_]
[15]
  collision cross section: 475.64 ± 1.1 Å²
[16]
  collision cross section: 477.04 ± 1.8 Å²

## ATVASSTQKFQDLGVK [_ATVASSTQK(hydroxyisobutyryl)FQDLGVK_]
[17]
  collision cross section: 453.68 ± 1.4 Å²
[18]
  collision cross section: 498.28 ± 1.6 Å²

## AVAITQSPSSVR [_AVAIT(HexNAc (ST))QSPSSVR_]
Charge state: 2, modification: HexNAc (ST)
  collision cross section: 390.4 ± 0.13 Å²

## AVPSSPAGSAARGR [_AVPSSPAGSAAR(Citrullination (R))GR_]
Charge state: 2, modification: Citrullination (R)
  collision cross section: 365.96 ± 0.94 Å²
[19]
  collision cross section: 481.37 ± 0.56 Å²

## AVPSSPAGSAARGR [_AVPSSPAGSAAR(Methyl (R))GR_]
Charge state: 2, modification: Methyl (R)
  collision cross section: 387.69 ± 1.4 Å²
Charge state: 3, modification: Methyl (R)
  collision cross section: 492.48 ± 1.5 Å²

## AVSILPLLGHGVPRLPPGR [_AVSILPLLGHGVPR(Citrullination (R))LPPGR_]
[19]
  collision cross section: 569.33 Å²

## AYDATHLVK [_AY(Nitro (Y))DATHLVK_]
[20]
  collision cross section: 358.23 ± 0.55 Å²
[21]
  collision cross section: 417.35 Å²

## AYDATHLVK [_AY(Phospho (Y))DATHLVK_]
[22]
  collision cross section: 354.67 ± 0.75 Å²
[23]
  collision cross section: 427.71 Å²

## AYGELPEHAK [_AY(Nitro (Y))GELPEHAK_]
[20]
  collision cross section: 361.5 ± 1.2 Å²
[21]
  collision cross section: 445.86 ± 1.2 Å²

## AYGELPEHAK [_AY(Phospho (Y))GELPEHAK_]
[22]
  collision cross section: 362.96 ± 0.74 Å²
[23]
  collision cross section: 450.05 Å²

## AYILNLVK [_AY(Nitro (Y))ILNLVK_]
[20]
  collision cross section: 333.68 ± 0.72 Å²

## AYILNLVK [_AY(Phospho (Y))ILNLVK_]
[22]
  collision cross section: 363.28 ± 0.69 Å²

## AYPLADAHLTK [_AY(Nitro (Y))PLADAHLTK_]
[20]
  collision cross section: 382.67 ± 0.55 Å²

## AYPLADAHLTK [_AY(Phospho (Y))PLADAHLTK_]
[22]
  collision cross section: 380.31 ± 0.063 Å²
[23]
  collision cross section: 465.22 ± 1 Å²

## CQGGQETQEYR [_CQGGQETQEY(Nitro (Y))R_]
[20]
  collision cross section: 375.36 ± 1.3 Å²

## CQGGQETQEYR [_CQGGQETQEY(Phospho (Y))R_]
[22]
  collision cross section: 381.17 Å²

## CSVLAAANPVYGR [_CSVLAAANPVY(Nitro (Y))GR_]
[20]
  collision cross section: 387.22 ± 0.17 Å²

## CSVLAAANPVYGR [_CSVLAAANPVY(Phospho (Y))GR_]
[22]
  collision cross section: 407.91 ± 1.2 Å²

## CYYGSDTAGR [_CY(Nitro (Y))YGSDTAGR_]
[20]
  collision cross section: 352.25 ± 0.8 Å²

## CYYGSDTAGR [_CY(Phospho (Y))YGSDTAGR_]
[22]
  collision cross section: 358.39 Å²

## DAEAAEATAEGALKAEK [_DAEAAEATAEGALK(Acetyl (K))AEK_]
[24]
  collision cross section: 451.64 ± 19 Å²
[25]
  collision cross section: 539.19 ± 1.8 Å²

## DAEAAEATAEGALKAEK [_DAEAAEATAEGALK(Biotin)AEK_]
[26]
  collision cross section: 451.86 Å²
[27]
  collision cross section: 551.51 Å²

## DAEAAEATAEGALKAEK [_DAEAAEATAEGALK(Butyryl)AEK_]
[28]
  collision cross section: 461.9 ± 22 Å²
[29]
  collision cross section: 544.71 ± 2 Å²

## DAEAAEATAEGALKAEK [_DAEAAEATAEGALK(Crotonyl)AEK_]
[1]
  collision cross section: 474.87 ± 0.81 Å²
[2]
  collision cross section: 545.42 ± 1.3 Å²

## DAEAAEATAEGALKAEK [_DAEAAEATAEGALK(Dimethyl (K))AEK_]
[3]
  collision cross section: 461.24 ± 1.8 Å²
[4]
  collision cross section: 536.26 ± 0.61 Å²

## DAEAAEATAEGALKAEK [_DAEAAEATAEGALK(Formyl)AEK_]
[5]
  collision cross section: 428.82 ± 0.71 Å²
[30]
  collision cross section: 534.4 ± 0.57 Å²

## DAEAAEATAEGALKAEK [_DAEAAEATAEGALK(Gluratylation)AEK_]
[6]
  collision cross section: 438.1 ± 0.96 Å²
[7]
  collision cross section: 545.34 ± 0.13 Å²

## DAEAAEATAEGALKAEK [_DAEAAEATAEGALK(GlyGly (K))AEK_]
[8]
  collision cross section: 475 ± 1.6 Å²
[9]
  collision cross section: 538.51 ± 1.1 Å²

## DAEAAEATAEGALKAEK [_DAEAAEATAEGALK(Malonyl)AEK_]
[10]
  collision cross section: 425.91 ± 1 Å²
[31]
  collision cross section: 541.5 Å²

## DAEAAEATAEGALKAEK [_DAEAAEATAEGALK(Methyl (K))AEK_]
[11]
  collision cross section: 456.59 ± 2.6 Å²
[12]
  collision cross section: 536.13 ± 1.5 Å²

## DAEAAEATAEGALKAEK [_DAEAAEATAEGALK(Propionyl)AEK_]
Charge state: 2, modification: Propionyl
  collision cross section: 451.16 ± 23 Å²

## DAEAAEATAEGALKAEK [_DAEAAEATAEGALK(Succinyl)AEK_]
[13]
  collision cross section: 437.62 ± 0.51 Å²
[14]
  collision cross section: 541.32 ± 2 Å²

## DAEAAEATAEGALKAEK [_DAEAAEATAEGALK(Trimethyl (K))AEK_]
[15]
  collision cross section: 469.97 ± 1 Å²
[16]
  collision cross section: 535.87 ± 1.1 Å²

## DAEAAEATAEGALKAEK [_DAEAAEATAEGALK(hydroxyisobutyryl)AEK_]
[17]
  collision cross section: 435.11 ± 0.29 Å²
[18]
  collision cross section: 547.8 ± 2.1 Å²

## DAIHFYNKSLAEHR [_DAIHFYNK(Acetyl (K))SLAEHR_]
[24]
  collision cross section: 449.95 Å²
[25]
  collision cross section: 504.71 ± 0.24 Å²

## DAIHFYNKSLAEHR [_DAIHFYNK(Butyryl)SLAEHR_]
[28]
  collision cross section: 452.1 Å²
[29]
  collision cross section: 511.38 ± 1.6 Å²

## DAIHFYNKSLAEHR [_DAIHFYNK(Crotonyl)SLAEHR_]
[2]
  collision cross section: 509.89 ± 2 Å²

## DAIHFYNKSLAEHR [_DAIHFYNK(Dimethyl (K))SLAEHR_]
[4]
  collision cross section: 497.01 ± 1.6 Å²

## DAIHFYNKSLAEHR [_DAIHFYNK(Formyl)SLAEHR_]
[5]
  collision cross section: 447.82 Å²
[30]
  collision cross section: 498.82 ± 2.2 Å²

## DAIHFYNKSLAEHR [_DAIHFYNK(Gluratylation)SLAEHR_]
[6]
  collision cross section: 458.31 Å²
[7]
  collision cross section: 515.3 ± 0.96 Å²

## DAIHFYNKSLAEHR [_DAIHFYNK(GlyGly (K))SLAEHR_]
[9]
  collision cross section: 519.9 ± 0.35 Å²

## DAIHFYNKSLAEHR [_DAIHFYNK(Malonyl)SLAEHR_]
[31]
  collision cross section: 505.96 ± 0.89 Å²

## DAIHFYNKSLAEHR [_DAIHFYNK(Methyl (K))SLAEHR_]
[11]
  collision cross section: 441.67 Å²
[12]
  collision cross section: 502.11 ± 2.1 Å²

## DAIHFYNKSLAEHR [_DAIHFYNK(Succinyl)SLAEHR_]
[13]
  collision cross section: 453.03 Å²
[14]
  collision cross section: 520.54 ± 0.35 Å²

## DAIHFYNKSLAEHR [_DAIHFYNK(Trimethyl (K))SLAEHR_]
[16]
  collision cross section: 498.17 ± 1.1 Å²

## DAIHFYNKSLAEHR [_DAIHFYNK(hydroxyisobutyryl)SLAEHR_]
[18]
  collision cross section: 512.82 ± 2.8 Å²

## DASTLQSQKAEGTGDAK [_DASTLQSQK(Acetyl (K))AEGTGDAK_]
[24]
  collision cross section: 431.11 ± 1.6 Å²
[25]
  collision cross section: 508.84 ± 0.99 Å²

## DASTLQSQKAEGTGDAK [_DASTLQSQK(Biotin)AEGTGDAK_]
[26]
  collision cross section: 450.36 ± 0.63 Å²
[27]
  collision cross section: 520.24 ± 1.3 Å²

## DASTLQSQKAEGTGDAK [_DASTLQSQK(Butyryl)AEGTGDAK_]
[28]
  collision cross section: 440.14 ± 0.24 Å²
[29]
  collision cross section: 511.91 ± 3.5 Å²

## DASTLQSQKAEGTGDAK [_DASTLQSQK(Crotonyl)AEGTGDAK_]
[1]
  collision cross section: 438.12 ± 0.54 Å²
[2]
  collision cross section: 513.07 ± 2.8 Å²

## DASTLQSQKAEGTGDAK [_DASTLQSQK(Dimethyl (K))AEGTGDAK_]
[3]
  collision cross section: 438.33 ± 1.3 Å²
[4]
  collision cross section: 482.19 ± 4.5 Å²

## DASTLQSQKAEGTGDAK [_DASTLQSQK(Formyl)AEGTGDAK_]
[5]
  collision cross section: 431.62 ± 0.17 Å²
[30]
  collision cross section: 503.35 ± 3 Å²

## DASTLQSQKAEGTGDAK [_DASTLQSQK(Gluratylation)AEGTGDAK_]
[6]
  collision cross section: 440.54 ± 1.5 Å²
[7]
  collision cross section: 515.28 ± 0.85 Å²

## DASTLQSQKAEGTGDAK [_DASTLQSQK(GlyGly (K))AEGTGDAK_]
[8]
  collision cross section: 451.81 ± 1.4 Å²
[9]
  collision cross section: 505.67 ± 1.1 Å²

Reference: the supplement of paper PMC10598134
